The target in experiment [1] is T1, human FcγRIIb (CD32b) extracellular domain (human, UniProt P31994 43-217).
T1 construct: extracellular domain
T1 sequence (looked up): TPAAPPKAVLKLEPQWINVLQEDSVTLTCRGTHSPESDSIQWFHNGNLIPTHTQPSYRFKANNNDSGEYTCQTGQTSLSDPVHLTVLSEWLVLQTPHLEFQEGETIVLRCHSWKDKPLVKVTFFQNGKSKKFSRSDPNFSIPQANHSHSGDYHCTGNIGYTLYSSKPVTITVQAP
Description: SPR at 25 C, antibody captured on Protein A chip.
Description: (§1) Briefly, the surfaces of all 4 flow cells were activated by injecting a 1:1 mixture of EDC/NHS for 7 minutes at 10 μL/minute. […] Un-reacted sites were blocked with a 7-minute injection of ethanolamine at 10 μL/minute. Injections of 2×10 μL of glycine pH 1.5 were used to remove any noncovalently associated protein.
(§2) For FcγRI binding, antibodies were diluted to 2.5 g/mL in running buffer (1x HBS-EP+, Teknova P/N H8022), and approximately 150 RU of each antibody was captured in flow cells 2 through 4 (RUcaptured). FC1 was the reference flow cell, therefore, no antibody was captured in FC1. […] Duplicate injections of each concentration were injected over all FCs at 40 μL/minute for 120 seconds followed by a 1200 second dissociation phase. Regeneration was performed by injecting 15 μL of 10 mM glycine pH 1.5 at 30 μL/minute over all FCs. Reference-subtracted data was collected as FC2-FC1, FC3-FC1, and FC4-FC1. The measurements were obtained at 25° C. The affinity (KD) was calculated using either steady state equilibrium analysis with the Scrubber 2 Biacore® Evaluation Software or a “1:1 (Langmuir) binding” model in BIA Evaluation.
(§3) For FcγRIIa, FcγRIIb, and FcγRIIIa binding, antibodies were diluted to 5 μg/mL in running buffer, and approximately 500 RU is captured in flow cells 2 through 4 (RUcaptured). FC1 is the reference flow cell. […] Duplicate injections of each concentration were injected over all FCs at 40 L/minute for 60 seconds followed by a 120 second dissociation phase. Regeneration was performed by injecting 15μL of 10 mM glycine pH 1.5 at 30 μL/minute over all FCs.

The target of experiment [2] is T2, human FcγRIIA_131R (CD32a) extracellular domain (human, UniProt P12318 34-217).
T2 construct: extracellular domain
T2 sequence (looked up): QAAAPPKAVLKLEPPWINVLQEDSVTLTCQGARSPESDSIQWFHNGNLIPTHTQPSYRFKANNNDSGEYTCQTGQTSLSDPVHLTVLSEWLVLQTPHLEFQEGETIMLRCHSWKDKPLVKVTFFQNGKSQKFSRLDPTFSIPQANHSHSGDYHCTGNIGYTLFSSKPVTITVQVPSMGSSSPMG
As to the kind of experiment: SPR at 25 C, antibody captured on Protein A chip.
Description: as §1, §2, §3

Experiment [3] has as its target T3, human FcγRI (CD64) extracellular domain (human, UniProt P12314 16-292).
T3 construct: extracellular domain; also called FcγRI ECD
Description: SPR at 25 C, antibody captured on Protein A chip.
Description: as §1, §2, §3

The target in experiment [4] is T4, human FcγRIIIA_158V (CD16a) extracellular domain (human, UniProt P08637 17-208).
T4 construct: extracellular domain
Description: SPR at 25 C, antibody captured on Protein A chip.
Description: as §1, §2, §3

The target of experiment [5] is T5, human FcγRIIIA_158F (CD16a) extracellular domain (human, UniProt P08637 17-208).
T5 construct: extracellular domain
As to the kind of experiment: SPR at 25 C, antibody captured on Protein A chip.
Description: as §1, §2, §3

Experiment [6] addresses T6, human FcγRIIA_131H (CD32a) extracellular domain (human, UniProt P12318 34-217).
T6 construct: extracellular domain
T6 sequence (looked up): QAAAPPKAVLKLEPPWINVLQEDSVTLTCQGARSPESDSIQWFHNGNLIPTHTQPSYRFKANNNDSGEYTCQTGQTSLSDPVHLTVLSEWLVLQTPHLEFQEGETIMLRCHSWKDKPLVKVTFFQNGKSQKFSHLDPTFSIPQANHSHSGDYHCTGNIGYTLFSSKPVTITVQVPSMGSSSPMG
As to the kind of experiment: SPR at 25 C, antibody captured on Protein A chip.
Description: as §1, §2, §3

In another experiment the target is T7, CYNO LEPR-ECD-His (cynomolgus monkey, UniProt Q9MYL0 22-837 (rhesus entry)).
T7 construct: also called cynomolgus monkey LEPR
T7 sequence: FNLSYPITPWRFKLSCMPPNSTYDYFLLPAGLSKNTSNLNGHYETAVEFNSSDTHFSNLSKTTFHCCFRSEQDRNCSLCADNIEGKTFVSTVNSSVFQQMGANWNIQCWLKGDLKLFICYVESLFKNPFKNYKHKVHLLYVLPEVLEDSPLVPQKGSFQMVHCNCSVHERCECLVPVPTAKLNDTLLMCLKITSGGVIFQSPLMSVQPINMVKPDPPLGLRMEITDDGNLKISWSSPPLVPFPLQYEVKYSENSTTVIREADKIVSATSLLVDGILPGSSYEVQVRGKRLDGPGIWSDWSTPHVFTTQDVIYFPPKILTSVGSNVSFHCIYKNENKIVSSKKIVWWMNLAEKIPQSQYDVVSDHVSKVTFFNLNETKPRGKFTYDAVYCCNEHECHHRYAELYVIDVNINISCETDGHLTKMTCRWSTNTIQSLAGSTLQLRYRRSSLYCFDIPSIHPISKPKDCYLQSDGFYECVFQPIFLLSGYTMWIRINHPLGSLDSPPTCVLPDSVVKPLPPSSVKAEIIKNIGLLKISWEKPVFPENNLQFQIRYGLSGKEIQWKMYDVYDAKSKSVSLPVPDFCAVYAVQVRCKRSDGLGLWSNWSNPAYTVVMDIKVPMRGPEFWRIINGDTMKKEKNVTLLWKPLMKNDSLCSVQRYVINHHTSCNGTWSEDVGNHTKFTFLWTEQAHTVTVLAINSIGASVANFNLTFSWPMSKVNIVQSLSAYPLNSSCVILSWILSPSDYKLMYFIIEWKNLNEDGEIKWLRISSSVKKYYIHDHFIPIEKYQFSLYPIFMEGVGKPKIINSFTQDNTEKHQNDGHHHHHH
As to the kind of experiment: SPR (Biacore T200), antibody captured on Protein A/G chip, His-tagged LEPR-ECD as analyte, 1:1 fit; mean n=3, SD 2.0E-9.

The target in experiment [7] is neonatal Fc receptor (FcRn) on FcRn Affinity Column Gen2 (Roche, Cat #09430857001) (UniProt P55899 24-297; P61769 21-119, limits assumed). As to the kind of experiment: FcRn-HPLC (Roche FcRn Affinity Column Gen2), pH gradient 5.5 to 8.8 over 90 minutes.
Description: Stock antibody solutions were diluted to 1 mg/mL into 20 mM MES, 140 mM NaCl, pH5.5. […] 20 μμL antibody injections were made followed by 10 minute column wash with 20 mM MES, 140 mM NaCl, pH5.5. Antibodies were then eluted by pH gradient elution into 20 mM Tris, 140 mM NaCl, pH8.8 over 90 minutes. Chromatograms were blank-subtracted to remove baseline drift.
Experiment [8] concerns the target T8, cynomolgus monkey LEPR, full length, on HEK293-STAT3Luc-cmLepR2 cells (Macaca fascicularis).
T8 construct: whole, on cells; also called cyno-LEPR; Macaca fascicularis LEPR
As to the kind of experiment: flow cytometry on live HEK293-STAT3Luc-cmLepR2 cells, AF647 anti-human IgG; average of 4 runs, SD 1.0.
Description: Cells were incubated in blocking buffer for 10 mins at room temperature. After one rinse with PBS, cells were transferred to U-bottom 96-well plate at 200 μL and 0.2˜0.26^e6 cells/well. […] Cells were then incubated with 30 μL/well of antibodies diluted in flow buffer at 1000 nM as high dose followed by 9-point dose response including 5-fold dilutions not including 0 (totaling 9 concentrations for each Antibody) for 30 minutes at 4° C. in dark.

T5 sequence (P08637 17-208): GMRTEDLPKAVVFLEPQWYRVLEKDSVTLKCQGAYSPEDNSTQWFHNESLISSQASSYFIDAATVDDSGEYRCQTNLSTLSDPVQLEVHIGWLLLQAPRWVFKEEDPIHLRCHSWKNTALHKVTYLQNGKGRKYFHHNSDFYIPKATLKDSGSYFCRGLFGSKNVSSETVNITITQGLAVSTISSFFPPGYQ
T3 sequence (P12314 16-292): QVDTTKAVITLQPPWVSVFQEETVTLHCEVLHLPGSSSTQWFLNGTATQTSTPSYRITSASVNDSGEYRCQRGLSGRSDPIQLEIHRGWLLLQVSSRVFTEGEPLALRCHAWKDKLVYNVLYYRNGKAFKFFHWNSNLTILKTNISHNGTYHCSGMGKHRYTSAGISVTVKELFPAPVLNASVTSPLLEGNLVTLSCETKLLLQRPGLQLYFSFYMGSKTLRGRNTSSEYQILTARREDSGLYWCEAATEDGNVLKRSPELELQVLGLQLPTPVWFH
Sequence of neonatal Fc receptor (FcRn) on FcRn Affinity Column Gen2 (Roche, Cat #09430857001) (P55899 24-297 limits assumed, chain 1 of 2): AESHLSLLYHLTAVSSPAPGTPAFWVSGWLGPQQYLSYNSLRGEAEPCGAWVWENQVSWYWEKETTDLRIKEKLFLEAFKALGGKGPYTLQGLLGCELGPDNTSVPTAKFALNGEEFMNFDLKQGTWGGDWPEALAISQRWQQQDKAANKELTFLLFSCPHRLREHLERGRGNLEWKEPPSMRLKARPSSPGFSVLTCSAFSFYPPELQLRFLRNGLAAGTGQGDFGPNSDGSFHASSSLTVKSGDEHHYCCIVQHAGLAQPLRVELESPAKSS
Sequence of neonatal Fc receptor (FcRn) on FcRn Affinity Column Gen2 (Roche, Cat #09430857001) (P61769 21-119 limits assumed, chain 2 of 2): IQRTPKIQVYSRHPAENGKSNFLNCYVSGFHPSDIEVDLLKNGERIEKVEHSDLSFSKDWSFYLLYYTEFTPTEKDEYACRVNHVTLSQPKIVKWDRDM
T4 sequence (P08637 17-208 F176V): as the sequence (P08637 17-208) above, with F160V counted along it
Description for CYNO LEPR-ECD-His: His-tagged ECDs were expressed and purified for each species and used for affinity analysis. A Protein A/G chip (Xantec, Cat #PAGHC200M) was utilized in this experiment with HBS-EP +0.01% BSA as running buffer. Antibodies were diluted to 1 μg/mL in running buffer and captured to a single flow cell on the chip surface. Each species of LEPR-ECD was diluted to 1000 nM in running buffer followed by 2-fold serial dilution. Each ligand concentration was injected over all flow cells at 100 L/min for 150 seconds followed by a 600 second dissociation phase. Regeneration was performed by injecting 10 mM glycine pH1.5 for 30 seconds at 10 μL/min. Data were analyzed in Biacore T200 Evaluation Software 3.1 by flow-cell 1 reference subtraction along with 0 nM blank subtraction. Data were fit globally using a “1:1 Binding” binding model to determine the on-rate (kₐ) and off-rate (kd) for each ligand. The affinity (KD) was calculated from the binding kinetics according to the relationship KD=kₐ/kd. Data reported as mean±standard deviation of experimental replicates.

B1: Antibody A (antibody, human IgG1, kappa, L234A L235A)
heavy: EVQLLESGGGLVQPGGSLRLSCAASGFTFSSFAMSWVRQAPGKGLEWVSAISGSGGSTYSADSVRGRFTISRDNSKNTLYLQMNSLRAEDTAVYYCAKDQGDWDFLFDYWGQGTLVTVSSASTKGPSVFPLAPSSKSTSGGTAALGCLVKDYFPEPVTVSWNSGALTSGVHTFPAVLQSSGLYSLSSVVTVPSSSLGTQTYICNVNHKPSNTKVDKRVEPKSCDKTHTCPPCPAPEAAGGPSVFLFPPKPKDTLYITREPEVTCVVVSVSHEDPEVKFNWYVDGVEVHNAKTKPREEQYNSTYRVVSVLTVLHQDWLNGKEYKCKVSNKALPAPIEKTISKAKGQPREPQVYTLPPSREEMTKNQVSLTCLVKGFYPSDIAVEWESNGQPENNYKTTPPVLDSDGSFFLYSKLTVDKSRWQQGNVFSCSVMHEALHNHYTQKSLSLSPGK
light: DIQMTQSPSFLSASVGDRVTITCRASQGISSSLAWYQQKPGKAPKLLIYTASTLQSGVPSRFSGSGSGTEFTLTISSLQPEDFATYYCQQLIYYPFTFGQGTKVEIKRTVAAPSVFIFPPSDEQLKSGTASVVCLLNNFYPREAKVQWKVDNALQSGNSQESVTEQDSKDSTYSLSSTLTLSKADYEKHKVYACEVTHQGLSSPVTKSFNRGEC
notes: IgG1 mAb
Broadly, the Kd is a measure of binding affinity in units of concentration. On to B1, for which the binding result is reported as “no binding (tested: receptor ECD tested up to 10 µM)” in experiment [1]; “no binding (tested: receptor ECD tested up to 10 µM)” in experiment [2]; “no binding (tested: FcγRI ECD tested up to 200 nM)” in experiment [3]; “no binding (tested: receptor ECD tested up to 10 µM)” in experiment [4]; “no binding (tested: receptor ECD tested up to 10 µM)” in [5]; “no binding (tested: receptor ECD tested up to 10 µM)” in experiment [6]. The molecule further showed a Kd in the experiment with CYNO LEPR-ECD-His of 19 nM. Moreover, the “Retention Time” value in experiment [7] was determined as 80.1 min.

B2: Antibody B (antibody, human IgG1, kappa, L234A L235A, V domains shown)
VH: EVQLLESGGGLVQPGGSLRLSCAASGFTFSSFAMSWVRQAPGKGLEWVSAISGSGGSTYSADSVRGRFTISRDNSKNTLYLQMNSLRAEDTAVYYCAKDQGDWDFLFDYWGQGTLVTVSS
VL: DIQMTQSPSFLSASVGDRVTITCRVSQGISSSLAWYQQKPGKAPKLLIYTASTLQSGVPSRFSGSGSGTEFTLTISSLQPEDFATYYCQQLNYYPFTFGQGTKVEIKR
In general, EC50 refers to the concentration giving half of the maximal effect. B2: the EC50 in experiment [8] was 1.11 nM.

Values taken from patent US20250289897A1 (Eli Lilly, published 2025).
